Blank lines part the entries; values can stand above or below the binder they belong to.
Tests used:
soluble ED protein = molecular target: T1, soluble ED protein (UniProt P08581 25-932, limits assumed); experiment: ELISA, plate coated with soluble ED protein, HRP anti-human IgG Fc detection
T1 construct: domain: ED; It is read here as the c-Met extracellular domain because the antibodies are anti-c-Met
Protocol: The affinities of chimeric cAAJ8D6 and the humanized antibody AAJ8D6 were determined by ELISA. A 96-well plate was coated with soluble ED protein and then incubated with diluted antibodies. ED-related antibodies were detected with an HRP-conjugated goat F(ab′)2 anti-human IgG Fc-specific secondary antibody.

c-Met protein = molecular target: T2, c-Met protein (UniProt P08581 25-932, limits assumed); experiment: ELISA, plate coated with c-Met protein at 2 ug/ml, HRP detection antibody
T2 construct: The construct is not described; also called c-Met antigen
T2 sequence (P08581 25-932 limits assumed): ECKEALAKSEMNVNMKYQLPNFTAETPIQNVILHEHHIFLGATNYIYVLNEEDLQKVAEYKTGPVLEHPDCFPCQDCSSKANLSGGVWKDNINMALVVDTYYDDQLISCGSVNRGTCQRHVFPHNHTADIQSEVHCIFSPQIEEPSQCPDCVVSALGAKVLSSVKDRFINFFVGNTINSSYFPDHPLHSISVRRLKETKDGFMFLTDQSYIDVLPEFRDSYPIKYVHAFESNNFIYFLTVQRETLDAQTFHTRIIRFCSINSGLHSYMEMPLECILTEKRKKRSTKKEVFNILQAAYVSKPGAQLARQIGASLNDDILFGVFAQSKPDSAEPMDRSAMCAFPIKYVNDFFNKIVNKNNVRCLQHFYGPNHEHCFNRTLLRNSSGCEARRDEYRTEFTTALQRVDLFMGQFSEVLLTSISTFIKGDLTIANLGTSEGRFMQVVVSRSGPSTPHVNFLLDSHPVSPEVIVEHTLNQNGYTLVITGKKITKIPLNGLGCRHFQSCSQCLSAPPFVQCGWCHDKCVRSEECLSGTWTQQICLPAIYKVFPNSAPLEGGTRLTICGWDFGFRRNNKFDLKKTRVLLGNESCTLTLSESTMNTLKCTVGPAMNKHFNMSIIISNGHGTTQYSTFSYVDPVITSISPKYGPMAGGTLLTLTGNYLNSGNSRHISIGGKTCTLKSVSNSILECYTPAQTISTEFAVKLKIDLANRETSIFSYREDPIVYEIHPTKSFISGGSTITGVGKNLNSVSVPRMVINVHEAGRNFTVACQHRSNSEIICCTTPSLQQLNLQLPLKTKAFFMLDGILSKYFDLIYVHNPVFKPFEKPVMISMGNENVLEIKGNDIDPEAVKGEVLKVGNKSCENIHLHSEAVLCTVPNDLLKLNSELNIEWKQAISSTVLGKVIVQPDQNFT
Protocol: The c-Met protein was prepared with a diluent to a final concentration of 2 μg/ml, and added to a microplate at 100 μl per well, overnight at 4° C. The solution in the well was discarded, and the plate was washed three times with PBST. The plate was added with a blocking solution at 300 μl/well and incubated at 37° C. for 2 h. The solution in the well was discarded, and the plate was washed three times with PBST. […] The solution in the well was discarded, and the plate was washed three times with PBST. HRP detection antibody was prepared by adding diluent at a dilution of 1:5000, added at 100 μl per well, and incubated at 37° C. for 1 h. The solution in the well was discarded, and the plate was washed three times with PB ST. The plate was added with TMB color developing solution, incubated at room temperature for 2 min, and then added with Elisa stop solution.

T1 sequence (P08581 25-932 limits assumed): as above

EC50 (soluble ED protein): 3.53 ng/mL | EC50 (c-Met protein): 0.54 ng/mL
B1: anti-c-Met humanized antibody AAJ8D6 (antibody, human IgG1, kappa, V domains shown)
VH: QVQLEQSGPEVVKPGASVKVSCKASGYSFTSYWMHWVRQAPGQGLEWMGMIDPSDSESRLNQKFKDRVTMTVDTPTSTVYMELSSPRSEDTAVYYCARSGYHGTSYWYFDVWGQGTLVTVSS
VL: DIVMTQSPLSLPVTPGEPASISCRSSKSLLHSDGITYLYWYLQKPGQSPQLLIYQMSNLASGVPDRFSGSGSGTDFTLKISRVEAEDVGVYYCAQNLELPPTFGGGTKVEIKR
notes: also called AAJ8D6 antibody

EC50 (c-Met protein): 1.33 ng/mL
B2: ABT-700 (telisotuzumab) (antibody, V domains shown)
VH: QVQLVQSGAEVKKPGASVKVSCKASGYIFTAYTMHWVRQAPGQGLEWMGWIKPNNGLANYAQKFQGRVTMTRDTSISTAYMELSRLRSDDTAVYYCARSEITTEFDYWGQGTLVTVSS
VL: DIVMTQSPDSLAVSLGERATINCKSSESVDSYANSFLHWYQQKPGQPPKLLIYRASTRESGVPDRFSGSGSGTDFTLTISSLQAEDVAVYYCQQSKEDPLTFGGGTKVEIKR
